Data set [1] has as its target T1, UDP-glucuronosyltransferase 2A3 (UGT2A3) (Homo sapiens, UniProt Q6UWM9).
T1 sequence (Q6UWM9 24-527): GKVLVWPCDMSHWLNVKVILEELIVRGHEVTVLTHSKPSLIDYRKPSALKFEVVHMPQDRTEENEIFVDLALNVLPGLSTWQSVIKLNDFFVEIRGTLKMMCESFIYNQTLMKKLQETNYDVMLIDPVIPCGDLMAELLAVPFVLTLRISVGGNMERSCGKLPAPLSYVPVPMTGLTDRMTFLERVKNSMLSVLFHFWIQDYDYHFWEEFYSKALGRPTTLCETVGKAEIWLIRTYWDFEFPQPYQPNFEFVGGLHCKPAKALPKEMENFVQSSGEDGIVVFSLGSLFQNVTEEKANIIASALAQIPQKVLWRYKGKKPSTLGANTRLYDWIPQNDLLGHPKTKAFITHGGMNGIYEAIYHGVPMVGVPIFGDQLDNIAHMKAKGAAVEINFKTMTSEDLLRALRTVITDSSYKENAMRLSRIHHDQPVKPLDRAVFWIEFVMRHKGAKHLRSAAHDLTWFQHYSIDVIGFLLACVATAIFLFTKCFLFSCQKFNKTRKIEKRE
The data set is described as follows: glucuronidation rate at […], radiochemical HPLC. The data set is classed as cell-based.

Substrate in data set [2]: O=C(O)[C@H]1O[C@H](OP(=O)(O)OP(=O)(O)OC[C@H]2O[C@@H](n3ccc(=O)[nH]c3=O)[C@H](O)[C@@H]2O)[C@H](O)[C@@H](O)[C@@H]1O
Kind of data set: cells, lysate or membranes. The note with it: MgCl2 ([…]) co-substrate.

Substrate in data set [3]: Cc1cc(=O)oc2cc(O)ccc12
Kind of data set: glucuronidation kinetics. The data set is classed as cell-based, Homo sapiens. The note with it: UDP-glucuronic acid; MgCl2 ([…]).

Substrate in data set [4]: O=[N+]([O-])c1ccc(O)cc1
The data set is described as follows: glucuronidation kinetics. The format is cell-based, Homo sapiens. Conditions: UDP-glucuronic acid; MgCl2 ([…]).

Substrate in data set [5]: Oc1ccc(-c2ccccc2)cc1
Kind of data set: glucuronidation kinetics. The format is cell-based, Homo sapiens. The note with it: UDP-glucuronic acid; MgCl2 ([…]).

As for `C[C@H](CCC(=O)O)[C@H]1CC[C@H]2[C@@H]3C[C@H](O)[C@@H]4C[C@H](O)CC[C@]4(C)[C@H]3CC[C@]12C` [HDCA, hyodeoxycholic acid], the “glucuronidation rate at 200 μM, radiochemical HPLC (4.9 pmol/min/mg)” value in data set [1] was “UGT2A3 exhibited glucuronidating activity only towards HDCA”.

B1: UDP-glucuronosyltransferase 2A2 (UGT2A2) (Homo sapiens) (protein)
chain: MVSIRDFTMPKKFVQMLVFNLTLTEVVLSGNVLIWPTDGSHWLNIKIILEELIQRNHNVTVLASSATLFINSNPDSPVNFEVIPVSYKKSNIDSLIEHMIMLWIDHRPTPLTIWAFYKELGKLLDTFFQINIQLCDGVLKNPKLMARLQKGGFDVLVADPVTICGDLVALKLGIPFMYTLRFSPASTVERHCGKIPAPVSYVPAALSELTDQMTFGERIKNTISYSLQDYIFQSYWGEWNSYYSKILGRPTTLCETMGKAEIWLIRTYWDFEFPRPYLPNFEFVGGLHCKPAKPLPKEMEEFIQSSGKNGVVVFSLGSMVKNLTEEKANLIASALAQIPQKVLWRYKGKKPATLGNNTQLFDWIPQNDLLGHPKTKAFITHGGTNGIYEAIYHGVPMVGVPMFADQPDNIAHMKAKGAAVEVNLNTMTSVDLLSALRTVINEPSYKENAMRLSRIHHDQPVKPLDRAVFWIEFVMRHKGAKHLRVAAHDLTWFQYHSLDVIGFLLVCVTTAIFLVIQCCLFSCQKFGKIGKKKKRE
For B1, the Michaelis constant (Km) – broadly, the substrate concentration at which the rate is half of its maximum – in data set [2] is 55.1 µM; in data set [3], 2998 µM; in data set [4], 4469 µM; in data set [5] it was 245 µM. Besides, the Vmax (usually the rate approached at saturating substrate) in data set [2] was 91.4 ± 3 pmol/min/mg; in data set [3] it was 39 ± 0.9 pmol/min/mg; in data set [4], 69 ± 3 pmol/min/mg; in data set [5] it was 124 ± 2 pmol/min/mg.

B2: UDP-glucuronosyltransferase 2A1 (UGT2A1) (Homo sapiens) (protein)
chain: GNVLIWPMEGSHWLNVKIIIDELIKKEHNVTVLVASGALFITPTSNPSLTFEIYKVPFGKERIEGVIKDFVLTWLENRPSPSTIWRFYQEMAKVIKDFHMVSQEICDGVLKNQQLMAKLKKSKFEVLVSDPVFPCGDIVALKLGIPFMYSLRFSPASTVEKHCGKVPYPPSYVPAVLSELTDQMSFTDRIRNFISYHLQDYMFETLWKSWDSYYSKALGGLLLCCPGWSAVADLGSLQPLLPGFKRFSRLSLHCSWDYRLPAGRPTTLCETMGKAEIWLIRTYWDFEFPRPYLPNFEFVGGLHCKPAKPLPKVLWRYKGKKPATLGNNTQLFDWIPQNDLLGHPKTKAFITHGGTNGIYEAIYHGVPMVGVPMFADQPDNIAHMKAKGAAVEVNLNTMTSVDLLSALRTVINEPSYKENAMRLSRIHHDQPVKPLDRAVFWIEFVMRHKGAKHLRVAAHDLTWFQYHSLDVIGFLLVCVTTAIFLVIQCCLFSCQKFGKIGKKKKRE
With B2, the Km in data set [2] was found to be 39.5 µM; in data set [4], 303 µM. Further, the Vmax is recorded as 292 ± 12 pmol/min/mg in data set [2] and 141 ± 5 pmol/min/mg in data set [4].

The record behind these values is paper PMC2928392 (Pharmacogenetics and Genomics, 2009).
